From publication PMC11707362, “Endothelial-secreted Endocan activates PDGFRA and regulates vascularity and spatial phenotype in glioblastoma” (Nature Communications, 2025)

Tests used:
[1] = target: T1, Fc-tagged recombinant PDGFRA monomeric fragment (human, UniProt P16234 24-528); test: SPR; Biacore T200, CM5 chip, amine coupling, hPDGFRA immobilised, Endocan as analyte; HBS-EP (0.15 M NaCl, 3 mM EDTA, 0.005% P20, 0.01 M Hepes pH 7.4), 30 ul/min; KD = koff/kon at five concentrations; repeated with 1 and 10 ug/ml heparin without effect; settings: both partners purified
T1 construct: PDGFRA (platelet-derived growth factor receptor alpha), human, recombinant 'monomeric fragment'; also called Fc-PDGFRA monomeric fragment; Fc-tagged rPDGFRA; source: bought: R&D

[2] = target: T2, Fc-tagged recombinant PDGFRA monomeric fragment (human, UniProt P16234 24-528); test: SPR
T2 chain: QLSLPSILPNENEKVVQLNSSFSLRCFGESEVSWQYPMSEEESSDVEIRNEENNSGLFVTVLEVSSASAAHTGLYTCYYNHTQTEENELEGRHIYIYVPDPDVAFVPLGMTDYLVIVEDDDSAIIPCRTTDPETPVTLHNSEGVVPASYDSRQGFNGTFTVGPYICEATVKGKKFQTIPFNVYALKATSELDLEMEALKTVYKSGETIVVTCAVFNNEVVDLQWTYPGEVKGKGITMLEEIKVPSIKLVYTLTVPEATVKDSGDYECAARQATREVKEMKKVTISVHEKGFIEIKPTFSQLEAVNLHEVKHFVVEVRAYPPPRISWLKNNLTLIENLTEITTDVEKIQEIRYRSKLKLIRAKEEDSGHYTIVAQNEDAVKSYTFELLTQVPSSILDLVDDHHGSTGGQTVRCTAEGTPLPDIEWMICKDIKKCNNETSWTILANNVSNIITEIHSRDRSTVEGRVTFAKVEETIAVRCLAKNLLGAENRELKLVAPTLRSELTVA

B1: recombinant His-tagged Endocan (ligand, UniProt Q9NQ30 20-184, looked up)
chain: WSNNYAVDCPQHCDSSECKSSPRCKRTVLDDCGCCRVCAAGRGETCYRTVSGMDGMKCGPGLRCQPSNGEDPFGEEFGICKDCPYGTFGMDCRETCNCQSGICDRGTGKCLKFPFFQYSVTKSSNRFVSLTEHDMASGDGNIVREEVVKENAAGSPVMRKWLNPR
notes: Endocan (ESM1 gene product), recombinant; the introduction describes the mature polypeptide as 165 amino acids; also called rEndocan; His6-Endocan; source: bought: R&D
Work on B1 yielded a Kd [1] of 345 nM and a koff [2] of 0.045 s⁻¹.
